Data as given in the supplement of paper PMC12764529.
± gives the half width of the 95% confidence interval.

Test: folding stability dG unfold (combined trypsin and chymotrypsin); higher = more stable
Outline: (§1)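 Unfolding free energy was derived, per protease or combined, against a sequence-predicted unfolded-state K50 and a shared folded-state K50, starting from K50 inferred by Bayesian fitting of sequencing counts. Digestion with trypsin and chymotrypsin was carried out on designed mini-proteins under 80 residues without cysteine in a PA-tagged cDNA display construct. Only designs with AlphaFold2 dimer inter-PAE above 15 were kept.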

| Sequence | folding stability dG unfold [kcal/mol] |
| --- | --- |
| SAGGSAMSVDPVGERTTITILYKDKPVTVPTGPLEEVEREVAAVLEEIEAKTGRKISPDTEVSFVPSAGGSA [r15_496_JUSTAS] | 0.318 ± 0.16 |
| SAGGSAGGSAGGAELLPSDVLKFTLTIQPDLKGSPPIIVEVTISVPPEVLEKPEIEVSLSAGGSAGGSAGGS [r10_672_JUSTAS] | 2.7 ± 0.15 |
| SARIRIMVPPDFIMVRTPKGKMRMVDDPEEIEEIIKDILPVPIEIEPLPPNSPKFQKMMEMMMREQNGPSAG [r14_235_TrROS] | 0.0355 ± 0.18 |
| SAGSMRTRKYEVERGEDEIVFPLPDGKVLRLPPDVGATVEVEYDPDGPPVRVTVRFPDGADYVLPYEELSAG [r5_45_JUSTAS] | 0.69 ± 0.15 |
| SAGGMPIYARIVLYPPETGKFSELEIEFPEFESPDEVVEAAKEIAEKLGGPIARIEIYDPKTGKPFPDSAGG [r13_771_TrMRF] | 0.314 ± 0.27 |
| SAGGSAGGSAGGSPKTILLEVNGRLVLVTVKDGKVEIRDLENPNKTYTFPPGAKILIVDSAGGSAGGSAGGS [r4_321_TrROS_Hall] | 1.84 ± 0.06 |
| SAKKPKKVIEVTIVLPLEELKNMSLEELLKKILEELGIKEGEKVKIEVKLEEVEIDGKKYLVITVRIELSAG [r14_334_TrROS_Hall] | 2.69 ± 0.15 |
| SAGGSAMPADEVVEVREITDPATGKKVTVVRNKETGRYFVRVENPDGETEVFEVPGMTAEELEELASAGGSA [r15_295_TrROS_Hall] | 2.51 ± 0.1 |
| SAGGSAKPKIKITITRNEDGSLLVRITLPDGREVELSVDDIKALEDAGINLDDVEITEVEVSPEDLSAGGSA [r15_955_TrROS_Hall] | 3.36 ± 0.13 |
| SAGGMANPEDFKVVESLEFRDPDNGKPFTIEIAKPPDNNVPIMIWHNGSMYMFVIDGDKIEVFPIKNSAGGS [r16_711_TrROS] | 1.75 ± 0.091 |
| SAGPNKPYKIRVSIMHPGKWREHEIDIDPGEDIEEALDEIMDKLPPNWMIMIHYANGEMIMIPIPPEMISAG [r5_77_TrROS] | 2.11 ± 0.16 |
| SAGGGNKPKIKVLLFFPDRVVELEFESPEEFIRALEEAGFPVIPVSEDSKYLVIEFPDGLRALADFSSAGGS [r8_365_TrMRF] | 2.48 ± 0.046 |
| SAGGSAGGSAGGGMMKTVLISLEGVDPSGGPSRRVEIELTLSPEEIPKVIEELAKAGRVLSAGGSAGGSAGG [r7_618_JUSTAS] | 0.232 ± 0.099 |
| SAGGIKEVKFDPKTNTLTVYLPEVGATITYNPTAGKLEIYSKDGKPKTIDVPTPSEMKKAILKAYKELKSAG [r5_467_TrMRF] | 2.69 ± 0.21 |
| SAGGSAGGSMRLDLDDIKRVEREPTPNGMRVYEIKLKGHKLPIRYHDNKIEISPEFKDLLKDISAGGSAGGS [r20_92_TrROS] | -0.253 ± 0.15 |
| SAGMKIKITLPNGAEFESNPETGKIEVIDPETGKPLIAYIPKDRPDIAFIFDPDNPKPLFEVKIDEIYPSAG [r5_761_TrMRF] | 1.11 ± 0.051 |
| EKALEAARELARKLAEELGVEVEVRVKKVSVLNENGELIAEVEVEITVRPLPPPVVEEEEVEEEEVEFEEES [r1_318_TrROS_Hall] | 1.99 ± 0.23 |
| SAGGSAGGSDYEYENEKDPDGQTKMKMRPKPPPVTVEVLIKLPNGLYFPIEITIYGNHITISISAGGSAGGS [r12_784_TrROS] | 2.32 ± 0.23 |
| SAGGKKPERVKITIMIPFDDPDKLRNFLRNHGFKVDEVEPNKEGMLAVEFEFPGYEIEIIIMDPGAMSAGGS [r16_170_TrROS] | 3.35 ± 0.14 |
| SAGKITLDGFTLDGEQTLTLTVEVPAPGGGTRTETFTATVTFDPETGTAHVPVTLPNGEELPFTFKVDASAG [r5_743_TrMRF] | 1.42 ± 0.075 |
| SAGGMIVEEETKPTPPLPDGTLVTESKVTIYINGKKITTTVKTTTLPDGTKVVETTLKGKKLKIILESAGGS [r16_448_JUSTAS] | 2.98 ± 0.075 |

Test: folding stability dG unfold from trypsin proteolysis; higher = more stable
Outline: as §1

| Sequence | folding stability dG unfold [kcal/mol] |
| --- | --- |
| SAGGEVKPGDKVKVRLRLRVRLEDGEEVEVELEFVEVEVVPLSEEEKEKLEELKKKKPEVDPKNKELLSAGG [r13_330_TrROS_Hall] | 1.61 ± 0.13 |
| SAGGELKLLFNFPSKEEAEEFAEALKKAYPNFEVEVEYDPETGLFYLTLKPKEIPPLSPEELEKLLESAGGS [r16_674_TrMRF] | 2.96 ± 0.085 |
| SAGGSAGGSGDSITLPVSVPKGSELVIENLSTNKKVIIPDDGPVTITIDKGKDGLKISAEVEKSAGGSAGGS [r12_919_TrMRF] | -0.398 ± 0.16 |
| SAGGSAGGSAKEVIIEIKVPPNMTEDEIKELLKKKFKGKKVEIKIEKKKNKNGTLIYKVEVKSAGGSAGGSA [r18_360_TrROS_Hall] | 2.6 ± 0.15 |
| SAGGSAGGSAGGKIYKKKNGTYKIIIYDKKTKKVYEIEIPVSKEDKPKILKEAKELAKKSAGGSAGGSAGGS [r10_379_TrROS_Hall] | 0.609 ± 0.11 |
| SAGGSAGGSAGGEPDKVSIHINITEEFIEQIKNGKPIPPWARPAIKYAQKKGKKVEIVWSAGGSAGGSAGGS [r10_890_TrROS] | -1.04 ± 0.61 |
| SAGGSAGGKLENLPENVTEVRIEKNENGEYTIYVRNKETNEYVKLKVEKKDGEWKIVEKEVFPKSAGGSAGG [r6_937_TrROS_Hall] | 2.09 ± 0.12 |
| SAGGSAGGSAKEKYILLKVKPGQKVEIEYENGEKKEVEVLEDGYLLIKVKEKNAKIKIKIKSAGGSAGGSAG [r3_334_TrROS_Hall] | 1.85 ± 0.17 |
| SAGGSAGGSAGPKILSIEEYDPENGYITVIAELTGKPVRMKVKFIPGKKEIKIIEIEPLDSAGGSAGGSAGG [r11_1066_TrMRF] | 1.81 ± 0.07 |
| SAGGKYKIEIVDVEVKEDGTVTIKLKLYNENGELIAEIEIELKGVKEVTLELEIGGKKIKITLKVEKPSAGG [r13_427_TrROS_Hall] | 4.13 ± 0.36 |
| SAGGSAEKPVRTLEITVTVPPGQPTPEELARALAEELGVEVTRVEVVRVERNEDGELTVTVRVEVKSAGGSA [r15_654_TrROS_Hall] | 3.2 ± 0.21 |
| SAGGSAGGSAPMVLLLEFDSPEEATEAAKKIAEEFEKLGAKVEVEIFKPPEDKYLVLIRIDSAGGSAGGSAG [r3_211_TrMRF] | 3.66 ± 0.38 |
| SAGGSAGGSAGGMKKKKLKEGVEIEFFREGDYLYVTTKIPETGKEETKKVKKVPKDIPLSAGGSAGGSAGGS [r10_240_JUSTAS] | -0.245 ± 0.45 |
| SAGGSAGGSAGDEPNDVVKIDFTFFFEDGYMIEMDIVIVPNGNIAIEIEIEPIKPPDEGDSAGGSAGGSAGG [r11_998_TrROS] | 2.06 ± 0.39 |
| SAGGGMMVLKVSQPVLLLSTVTLPNGFPKFLPVSPLSLETTVTFTGSDQDAEELAAELKAQGATVTEESAGG [r13_452_JUSTAS] | 0.585 ± 0.025 |
| SAGSKVPVTATATFSDKAELEKTVADIKAKTGYDIEVTYDPNSNSYTITVNTTDEVVKMLKEKGFKLESAGG [r19_306_JUSTAS] | 2.33 ± 0.13 |
| SAGGMKIEIELEDGYLRVKIYDKDGKLIEEIEIKIEKVEPPPEVEVELSPEELAKKLGVEIEIKEKESAGGS [r16_778_TrROS_Hall] | 1.62 ± 0.18 |
| SAGGSAGGSAGMKEGEIVEVTVPIPENGEEIKVKVVAPPSLTEEEARALAEEKAKEIYEKSAGGSAGGSAGG [r11_355_JUSTAS] | 0.0651 ± 0.062 |
| SAGGSAGGSAGGSWKIDKFTSIERTDGGYVIRIRMENPDGPPMKQTFYFPPGDDELANISAGGSAGGSAGGS [r4_253_TrROS] | 0.285 ± 0.21 |
| SAGGSAGGSAGGMSFPVSSVEYRKDPNSDTPLVFITLPDGTVIIERLDTGTSSVVPVSQLSAGGSAGGSAGG [r11_922_JUSTAS] | 1.12 ± 0.037 |
| SAGGSAGGSGMAVSVSVTPVRLPDGSVRLVISFSSGSTVVLDLPESEWTPEQVEALVAELVSASAGGSAGGS [r12_218_JUSTAS] | 3.82 ± 0.077 |

| Sequence | folding stability dG unfold [kcal/mol] |
| --- | --- |
| SAGGSAMSVDPVGERTTITILYKDKPVTVPTGPLEEVEREVAAVLEEIEAKTGRKISPDTEVSFVPSAGGSA [r15_496_JUSTAS] | -0.283 ± 0.3 |
| SAGGSAGGSAGGAELLPSDVLKFTLTIQPDLKGSPPIIVEVTISVPPEVLEKPEIEVSLSAGGSAGGSAGGS [r10_672_JUSTAS] | 2.12 ± 0.15 |
| SARIRIMVPPDFIMVRTPKGKMRMVDDPEEIEEIIKDILPVPIEIEPLPPNSPKFQKMMEMMMREQNGPSAG [r14_235_TrROS] | -0.264 ± 0.48 |
| SAGSMRTRKYEVERGEDEIVFPLPDGKVLRLPPDVGATVEVEYDPDGPPVRVTVRFPDGADYVLPYEELSAG [r5_45_JUSTAS] | -0.531 ± 0.45 |
| SAGGMPIYARIVLYPPETGKFSELEIEFPEFESPDEVVEAAKEIAEKLGGPIARIEIYDPKTGKPFPDSAGG [r13_771_TrMRF] | 0.592 ± 0.094 |
| SAGGSAGGSAGGSPKTILLEVNGRLVLVTVKDGKVEIRDLENPNKTYTFPPGAKILIVDSAGGSAGGSAGGS [r4_321_TrROS_Hall] | 1.61 ± 0.021 |
| SAKKPKKVIEVTIVLPLEELKNMSLEELLKKILEELGIKEGEKVKIEVKLEEVEIDGKKYLVITVRIELSAG [r14_334_TrROS_Hall] | 2.87 ± 0.13 |
| SAGGSAMPADEVVEVREITDPATGKKVTVVRNKETGRYFVRVENPDGETEVFEVPGMTAEELEELASAGGSA [r15_295_TrROS_Hall] | 2.33 ± 0.056 |
| SAGGSAKPKIKITITRNEDGSLLVRITLPDGREVELSVDDIKALEDAGINLDDVEITEVEVSPEDLSAGGSA [r15_955_TrROS_Hall] | 3.92 ± 0.12 |
| SAGGMANPEDFKVVESLEFRDPDNGKPFTIEIAKPPDNNVPIMIWHNGSMYMFVIDGDKIEVFPIKNSAGGS [r16_711_TrROS] | 1.5 ± 0.04 |
| SAGPNKPYKIRVSIMHPGKWREHEIDIDPGEDIEEALDEIMDKLPPNWMIMIHYANGEMIMIPIPPEMISAG [r5_77_TrROS] | 1.72 ± 0.097 |
| SAGGGNKPKIKVLLFFPDRVVELEFESPEEFIRALEEAGFPVIPVSEDSKYLVIEFPDGLRALADFSSAGGS [r8_365_TrMRF] | 2.44 ± 0.049 |
| SAGGSAGGSAGGGMMKTVLISLEGVDPSGGPSRRVEIELTLSPEEIPKVIEELAKAGRVLSAGGSAGGSAGG [r7_618_JUSTAS] | 0.533 ± 0.058 |
| SAGGIKEVKFDPKTNTLTVYLPEVGATITYNPTAGKLEIYSKDGKPKTIDVPTPSEMKKAILKAYKELKSAG [r5_467_TrMRF] | 1.82 ± 0.064 |
| SAGGSAGGSMRLDLDDIKRVEREPTPNGMRVYEIKLKGHKLPIRYHDNKIEISPEFKDLLKDISAGGSAGGS [r20_92_TrROS] | -0.382 ± 0.19 |
| SAGMKIKITLPNGAEFESNPETGKIEVIDPETGKPLIAYIPKDRPDIAFIFDPDNPKPLFEVKIDEIYPSAG [r5_761_TrMRF] | 0.889 ± 0.016 |
| EKALEAARELARKLAEELGVEVEVRVKKVSVLNENGELIAEVEVEITVRPLPPPVVEEEEVEEEEVEFEEES [r1_318_TrROS_Hall] | 1.82 ± 0.1 |
| SAGGSAGGSDYEYENEKDPDGQTKMKMRPKPPPVTVEVLIKLPNGLYFPIEITIYGNHITISISAGGSAGGS [r12_784_TrROS] | 2.17 ± 0.12 |
| SAGGKKPERVKITIMIPFDDPDKLRNFLRNHGFKVDEVEPNKEGMLAVEFEFPGYEIEIIIMDPGAMSAGGS [r16_170_TrROS] | 2.83 ± 0.16 |
| SAGKITLDGFTLDGEQTLTLTVEVPAPGGGTRTETFTATVTFDPETGTAHVPVTLPNGEELPFTFKVDASAG [r5_743_TrMRF] | 1.18 ± 0.024 |
| SAGGMIVEEETKPTPPLPDGTLVTESKVTIYINGKKITTTVKTTTLPDGTKVVETTLKGKKLKIILESAGGS [r16_448_JUSTAS] | 2.26 ± 0.07 |
